Data reported in the supplement of paper PMC7877785.
± gives the uncertainty stated by the source.

Assay: self-splicing fitness, log relative to wild type (ln ratio); higher = more splicing; Tetrahymena group I intron in knt gene, E. coli kanamycin selection, DiMSum; sequences stand for … in CUCUCU…GGAGGGAAAAGUUAUCAGGCAUGCACCUGGUAGCUAGUCUUUAAACCAAUAGAUUGCAUCGGUUUAAAAGGCAAGACCGUCAAAUUGCGGGAAAGGGGUCAACAGCCGUUCAGUACCAAGUCUCAGGGGAAACUUUGAGAUGGCCUUGCAAAGGGUAUGGUAAUAAGCUGACGGACAUGGUCCUAACCACGCAGCCAAGUCCUAAGUCAACAGAUCUUCUGUUGAUAUGGAUGCAGUUCACAGACUAAAUGUCGGUCGGGGAAGAUGUAUUCUUCUCAUAAGAUAUAGUCGGACCUCUCCUUAAUGGGAGCUAGCGGAUGAAGUGAUGCAACACUGGAGCCGCUGGGAACUAAUUUGUAUGCGAAAGUAUAUUGAUUAGUUUUGGAGUACUCGUGGUCG
Method in brief: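 DiMSum derived fitness as the error-weighted combination of fold changes across replicates, kanamycin versus no kanamycin, normalised to wild type. E. coli BL21(DE3) held the library, which randomised all eight P1ex-region intron nucleotides within the knt kanamycin-resistance gene on pET-22b(+). Six replicate transformations grew overnight at 37°C or 30°C on LB agar with or without 25 μg/mL kanamycin, also containing 100 μg/mL carbenicillin, 50 μM IPTG and 0.2% rhamnose, and pooled colonies were amplicon-sequenced on an Illumina HiSeq 2500.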

Row | Sequence | self-splicing fitness (ln) (30 °C) | self-splicing fitness (ln) (37 °C)
1 | GUGAAGCAAUAUUACGUUCU | -0.0481 ± 0.072 | -0.218 ± 0.086
2 | UCGUAGCAAUAUUACGAUGA | -0.769 ± 0.12 | -0.601 ± 0.13
3 | AUUGAGCAAUAUUACGGCUC | – | -1.77 ± 0.32
4 | CACCAGCAAUAUUACGCGGA | -2.85 ± 0.15 | -0.595 ± 0.088
5 | ACUAAGCAAUAUUACGCAAA | -2.51 ± 0.24 | -1.77 ± 0.24
6 | AGGUAGCAAUAUUACGAACG | -0.798 ± 0.016 | -0.207 ± 0.035
7 | UCCGAGCAAUAUUACGAAAA | – | -1.07 ± 0.37
8 | UACAAGCAAUAUUACGUAUU | -4.29 ± 0.19 | -2.32 ± 0.13
9 | AGACAGCAAUAUUACGUUUG | -3.34 ± 0.11 | -1.22 ± 0.086
10 | UGACAGCAAUAUUACGGCAA | -1.41 ± 0.14 | -0.13 ± 0.17
11 | CUUUAGCAAUAUUACGUGCU | – | -2.59 ± 0.41
12 | GCUAAGCAAUAUUACGCAAA | -2.6 ± 0.26 | -0.986 ± 0.17
13 | GACCAGCAAUAUUACGGUAG | -0.241 ± 0.066 | 0.668 ± 0.085
14 | CAUCAGCAAUAUUACGAAUC | -1.97 ± 0.13 | -1.25 ± 0.12
15 | UGGUAGCAAUAUUACGAUCU | -0.554 ± 0.13 | 0.576 ± 0.18
16 | GUAUAGCAAUAUUACGGGAC | -2.88 ± 0.34 | -1.07 ± 0.2
17 | CGGAAGCAAUAUUACGGCUU | -3.34 ± 0.3 | -2.75 ± 0.36
18 | GCUUAGCAAUAUUACGGAAC | -0.644 ± 0.15 | -0.955 ± 0.14
19 | ACGCAGCAAUAUUACGGUAA | -2.69 ± 0.12 | -1.02 ± 0.082
20 | ACUGAGCAAUAUUACGGAUA | -3.08 ± 0.28 | -1.77 ± 0.26
21 | GCUCAGCAAUAUUACGCCGC | -3.66 ± 0.44 | –
22 | CCGUAGCAAUAUUACGUAUU | -4.16 ± 0.28 | -3.58 ± 0.39
23 | CCUCAGCAAUAUUACGACUC | -3.68 ± 0.43 | –
24 | UUAAAGCAAUAUUACGCCUA | 0.0988 ± 0.091 | 0.8 ± 0.14
25 | UCACAGCAAUAUUACGACAC | -3.44 ± 0.38 | -2.71 ± 0.34
26 | ACGUAGCAAUAUUACGGCGG | -1.65 ± 0.1 | -0.812 ± 0.11

Row | Sequence | self-splicing fitness (ln) (30 °C) | self-splicing fitness (ln) (37 °C)
27 | AAACAGCAAUAUUACGAAGG | -3.85 ± 0.13 | -2.2 ± 0.15
28 | ACCAAGCAAUAUUACGAGAA | -2.87 ± 0.34 | -2.32 ± 0.3
29 | UGCUAGCAAUAUUACGCGCC | -1.26 ± 0.2 | -0.477 ± 0.29
30 | AAUAAGCAAUAUUACGAUUU | -0.134 ± 0.064 | -0.252 ± 0.074
31 | CAUAAGCAAUAUUACGUAUU | -3.24 ± 0.19 | -3.09 ± 0.19
32 | UAAGAGCAAUAUUACGAACG | – | -2.57 ± 0.41
33 | GAUUAGCAAUAUUACGAGGC | -4.11 ± 0.46 | -1.02 ± 0.28
34 | CGUAAGCAAUAUUACGGCUA | -2.35 ± 0.41 | -1.48 ± 0.33
35 | UCAGAGCAAUAUUACGUGCU | -3.09 ± 0.2 | -3.07 ± 0.28
36 | UAGUAGCAAUAUUACGCCGA | -1.81 ± 0.23 | -0.922 ± 0.2
37 | UCCCAGCAAUAUUACGGAGC | -1.44 ± 0.098 | -1.44 ± 0.18
38 | CAGGAGCAAUAUUACGGCGA | -2.73 ± 0.29 | -3.49 ± 0.29
39 | UCCGAGCAAUAUUACGAUCG | -3.27 ± 0.27 | -2.51 ± 0.34
40 | UUACAGCAAUAUUACGCAGU | -4.23 ± 0.31 | -2.55 ± 0.28
41 | UCGUAGCAAUAUUACGCUUA | – | -1.1 ± 0.47
42 | GUAAAGCAAUAUUACGCUAC | -4.2 ± 0.32 | -1.87 ± 0.37
43 | ACCAAGCAAUAUUACGCCGA | -2.23 ± 0.15 | -1.81 ± 0.16
44 | GGAGAGCAAUAUUACGGACG | – | -1.27 ± 0.31
45 | UGUAAGCAAUAUUACGGUUA | -0.297 ± 0.091 | -0.0116 ± 0.098
46 | CGCUAGCAAUAUUACGGGCC | -2.29 ± 0.17 | -1.92 ± 0.19
47 | AGUUAGCAAUAUUACGCGCG | -0.159 ± 0.12 | -0.151 ± 0.15
48 | UUAUAGCAAUAUUACGUUCG | -0.942 ± 0.091 | 0.154 ± 0.14
49 | UUCUAGCAAUAUUACGCAUG | -3.42 ± 0.16 | -2.01 ± 0.18
50 | GCAUAGCAAUAUUACGGCUA | -1.16 ± 0.069 | -0.431 ± 0.069
51 | AGGGAGCAAUAUUACGGGGC | – | -0.893 ± 0.36
